# Measured values taken from paper PMC3068300 (Proteins, 2010).
# B1: Mycobacterium tuberculosis Rv2704 (natural protein)
# chain: ASRTMVSSGSEFESAVGYSRAVRIGPLVVVAGTTGSGDDIAAQTRDALRRIEIALGQAGATLADVVRTRIYVTDISRWREVGEVHAQAFGKIRPVTSMVEVTALIAPGLLVEIEADAYVGSAVADRNSGAGPKDPSPAGG
# Biological target: the molecule itself
# Test: SEC
protein,measurement,value
B1,stoichiometry N,3
